Assay results: PMC2115384 (The Journal of Cell Biology, 1989)
Each block holds one molecule with its values, some of them ahead of it.

Columns and labels:
Assay in all cases: native gel or EMSA
[1] = target: ankyrin solubilized from MDCK cells (dog (endogenous in MDCK))
[2] = target: fodrin solubilized from MDCK cells (alpha- and beta-subunits) (dog (endogenous in MDCK))
[3] = target: purified human erythrocyte spectrin heterotetramers (human, UniProt P02549 1-2419; P11277 1-2137)
Sequence of purified human erythrocyte spectrin heterotetramers (P02549 whole entry, chain 1 of 2): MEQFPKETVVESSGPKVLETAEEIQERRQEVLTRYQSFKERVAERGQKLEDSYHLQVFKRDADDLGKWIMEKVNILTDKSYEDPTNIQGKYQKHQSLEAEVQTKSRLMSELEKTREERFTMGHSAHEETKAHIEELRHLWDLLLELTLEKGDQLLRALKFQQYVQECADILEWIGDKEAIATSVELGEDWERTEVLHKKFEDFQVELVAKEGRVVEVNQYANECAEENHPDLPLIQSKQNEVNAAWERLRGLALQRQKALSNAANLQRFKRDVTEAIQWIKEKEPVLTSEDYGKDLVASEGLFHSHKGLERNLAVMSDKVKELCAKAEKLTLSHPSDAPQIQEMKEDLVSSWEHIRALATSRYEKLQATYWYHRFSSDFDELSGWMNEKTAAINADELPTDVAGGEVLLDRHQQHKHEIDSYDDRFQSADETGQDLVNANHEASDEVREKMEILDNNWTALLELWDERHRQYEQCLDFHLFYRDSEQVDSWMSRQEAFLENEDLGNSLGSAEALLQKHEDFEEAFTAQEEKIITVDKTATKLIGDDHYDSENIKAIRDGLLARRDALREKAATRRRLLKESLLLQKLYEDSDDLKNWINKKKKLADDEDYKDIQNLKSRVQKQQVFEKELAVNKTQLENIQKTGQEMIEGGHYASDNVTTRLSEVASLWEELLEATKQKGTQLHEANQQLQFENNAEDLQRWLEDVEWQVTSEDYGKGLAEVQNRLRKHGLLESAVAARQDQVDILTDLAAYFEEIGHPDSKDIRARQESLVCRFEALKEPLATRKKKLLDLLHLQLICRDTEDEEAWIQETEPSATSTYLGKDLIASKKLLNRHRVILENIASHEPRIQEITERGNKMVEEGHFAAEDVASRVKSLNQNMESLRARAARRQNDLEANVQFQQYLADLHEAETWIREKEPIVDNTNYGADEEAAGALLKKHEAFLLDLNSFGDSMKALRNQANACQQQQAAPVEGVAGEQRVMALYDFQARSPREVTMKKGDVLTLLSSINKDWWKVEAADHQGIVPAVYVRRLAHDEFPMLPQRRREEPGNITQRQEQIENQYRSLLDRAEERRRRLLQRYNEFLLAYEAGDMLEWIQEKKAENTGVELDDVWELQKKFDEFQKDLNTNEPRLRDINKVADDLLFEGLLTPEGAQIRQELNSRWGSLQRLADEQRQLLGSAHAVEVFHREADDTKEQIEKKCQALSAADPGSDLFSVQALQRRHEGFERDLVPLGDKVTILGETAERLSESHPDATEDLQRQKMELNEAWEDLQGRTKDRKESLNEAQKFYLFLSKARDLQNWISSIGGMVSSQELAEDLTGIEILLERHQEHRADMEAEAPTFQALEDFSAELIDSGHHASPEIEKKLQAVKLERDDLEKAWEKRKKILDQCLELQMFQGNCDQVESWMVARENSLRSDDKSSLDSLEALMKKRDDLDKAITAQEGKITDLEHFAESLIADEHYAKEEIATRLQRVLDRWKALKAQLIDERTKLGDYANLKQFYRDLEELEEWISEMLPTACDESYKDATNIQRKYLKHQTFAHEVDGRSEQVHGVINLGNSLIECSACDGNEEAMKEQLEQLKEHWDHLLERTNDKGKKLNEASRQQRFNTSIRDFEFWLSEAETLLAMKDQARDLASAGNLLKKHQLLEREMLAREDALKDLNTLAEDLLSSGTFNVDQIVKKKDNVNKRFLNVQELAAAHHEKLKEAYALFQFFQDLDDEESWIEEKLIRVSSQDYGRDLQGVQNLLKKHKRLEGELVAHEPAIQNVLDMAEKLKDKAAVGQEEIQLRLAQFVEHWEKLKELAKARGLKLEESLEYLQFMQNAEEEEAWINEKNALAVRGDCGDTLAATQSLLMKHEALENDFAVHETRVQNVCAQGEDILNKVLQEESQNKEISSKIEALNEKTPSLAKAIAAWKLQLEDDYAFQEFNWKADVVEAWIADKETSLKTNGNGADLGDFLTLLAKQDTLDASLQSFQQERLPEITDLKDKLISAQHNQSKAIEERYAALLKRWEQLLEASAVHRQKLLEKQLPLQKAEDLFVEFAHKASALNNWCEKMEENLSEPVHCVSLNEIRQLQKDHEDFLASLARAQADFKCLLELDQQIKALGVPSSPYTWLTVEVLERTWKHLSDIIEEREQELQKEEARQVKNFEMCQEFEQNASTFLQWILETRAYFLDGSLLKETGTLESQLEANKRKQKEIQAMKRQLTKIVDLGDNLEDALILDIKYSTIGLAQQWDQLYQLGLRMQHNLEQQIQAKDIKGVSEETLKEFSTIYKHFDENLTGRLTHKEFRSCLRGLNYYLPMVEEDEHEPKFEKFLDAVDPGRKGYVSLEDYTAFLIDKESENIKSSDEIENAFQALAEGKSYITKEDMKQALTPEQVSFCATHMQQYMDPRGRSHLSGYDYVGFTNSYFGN
Sequence of purified human erythrocyte spectrin heterotetramers (P11277 whole entry, chain 2 of 2): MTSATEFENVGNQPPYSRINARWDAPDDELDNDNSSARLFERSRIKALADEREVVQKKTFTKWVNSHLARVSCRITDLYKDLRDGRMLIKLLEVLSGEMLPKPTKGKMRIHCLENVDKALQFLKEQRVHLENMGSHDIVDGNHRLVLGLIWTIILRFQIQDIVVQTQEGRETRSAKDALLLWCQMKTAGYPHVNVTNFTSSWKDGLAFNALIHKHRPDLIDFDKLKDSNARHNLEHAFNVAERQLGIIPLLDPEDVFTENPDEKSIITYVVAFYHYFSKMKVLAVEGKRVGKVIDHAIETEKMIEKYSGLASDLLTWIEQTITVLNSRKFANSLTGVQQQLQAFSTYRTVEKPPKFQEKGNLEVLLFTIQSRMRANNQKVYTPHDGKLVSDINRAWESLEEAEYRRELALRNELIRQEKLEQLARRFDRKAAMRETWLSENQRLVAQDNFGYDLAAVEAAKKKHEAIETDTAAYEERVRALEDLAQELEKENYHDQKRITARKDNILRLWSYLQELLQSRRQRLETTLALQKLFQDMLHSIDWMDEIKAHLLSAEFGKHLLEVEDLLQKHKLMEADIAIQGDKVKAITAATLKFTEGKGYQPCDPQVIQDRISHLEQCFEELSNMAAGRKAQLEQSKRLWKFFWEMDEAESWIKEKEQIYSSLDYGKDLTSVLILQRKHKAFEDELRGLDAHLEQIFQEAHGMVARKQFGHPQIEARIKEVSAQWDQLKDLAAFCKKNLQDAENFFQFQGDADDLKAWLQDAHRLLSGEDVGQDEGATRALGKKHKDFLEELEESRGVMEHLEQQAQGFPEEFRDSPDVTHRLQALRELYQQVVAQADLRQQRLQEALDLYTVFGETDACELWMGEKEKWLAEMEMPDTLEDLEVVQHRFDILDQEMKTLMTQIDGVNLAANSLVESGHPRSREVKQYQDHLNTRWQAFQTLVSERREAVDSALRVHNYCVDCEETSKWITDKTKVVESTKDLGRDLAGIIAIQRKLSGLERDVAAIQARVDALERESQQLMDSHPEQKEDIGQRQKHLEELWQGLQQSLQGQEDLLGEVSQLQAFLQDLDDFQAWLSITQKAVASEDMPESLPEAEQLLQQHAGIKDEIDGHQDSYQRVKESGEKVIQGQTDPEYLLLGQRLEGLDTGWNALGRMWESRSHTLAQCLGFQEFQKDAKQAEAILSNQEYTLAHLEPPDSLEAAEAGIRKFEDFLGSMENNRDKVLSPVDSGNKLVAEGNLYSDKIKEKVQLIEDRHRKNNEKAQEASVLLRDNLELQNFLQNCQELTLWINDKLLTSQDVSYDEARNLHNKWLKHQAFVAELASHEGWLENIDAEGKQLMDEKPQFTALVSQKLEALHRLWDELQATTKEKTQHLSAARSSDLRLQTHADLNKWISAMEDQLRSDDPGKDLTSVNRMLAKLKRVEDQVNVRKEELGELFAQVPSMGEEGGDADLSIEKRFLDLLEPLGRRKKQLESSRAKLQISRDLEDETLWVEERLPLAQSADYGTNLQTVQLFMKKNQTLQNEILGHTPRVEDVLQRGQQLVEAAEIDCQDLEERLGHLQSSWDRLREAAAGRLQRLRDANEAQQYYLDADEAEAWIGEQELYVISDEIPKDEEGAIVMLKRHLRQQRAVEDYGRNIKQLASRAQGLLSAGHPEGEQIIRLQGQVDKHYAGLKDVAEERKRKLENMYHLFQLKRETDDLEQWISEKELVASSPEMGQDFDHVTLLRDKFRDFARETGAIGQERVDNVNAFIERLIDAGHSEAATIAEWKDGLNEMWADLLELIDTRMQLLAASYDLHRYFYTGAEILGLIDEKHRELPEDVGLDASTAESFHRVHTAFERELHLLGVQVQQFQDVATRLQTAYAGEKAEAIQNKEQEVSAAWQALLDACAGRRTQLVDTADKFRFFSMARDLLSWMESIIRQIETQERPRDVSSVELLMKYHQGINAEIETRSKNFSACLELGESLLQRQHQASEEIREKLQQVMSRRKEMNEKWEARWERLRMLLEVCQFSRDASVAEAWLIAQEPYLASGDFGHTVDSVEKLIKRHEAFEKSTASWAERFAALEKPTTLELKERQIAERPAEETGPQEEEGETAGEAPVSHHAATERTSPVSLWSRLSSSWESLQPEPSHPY

percent of solubilized Na+,K+-ATPase comigrating with ankyrin and fodrin [1]: > 80% | percent of solubilized Na+,K+-ATPase comigrating with ankyrin and fodrin [2]: > 80%
Molecule: Na+,K+-ATPase solubilized from MDCK cells (alpha- and beta-subunits) (from UniProt P50997 1-1021; P06583 1-303) (complex)

binding result [3]: binds
B1: purified human erythrocyte ankyrin (natural protein, UniProt P16157 1-1881, looked up)
chain: MPYSVGFREADAATSFLRAARSGNLDKALDHLRNGVDINTCNQNGLNGLHLASKEGHVKMVVELLHKEIILETTTKKGNTALHIAALAGQDEVVRELVNYGANVNAQSQKGFTPLYMAAQENHLEVVKFLLENGANQNVATEDGFTPLAVALQQGHENVVAHLINYGTKGKVRLPALHIAARNDDTRTAAVLLQNDPNPDVLSKTGFTPLHIAAHYENLNVAQLLLNRGASVNFTPQNGITPLHIASRRGNVIMVRLLLDRGAQIETKTKDELTPLHCAARNGHVRISEILLDHGAPIQAKTKNGLSPIHMAAQGDHLDCVRLLLQYDAEIDDITLDHLTPLHVAAHCGHHRVAKVLLDKGAKPNSRALNGFTPLHIACKKNHVRVMELLLKTGASIDAVTESGLTPLHVASFMGHLPIVKNLLQRGASPNVSNVKVETPLHMAARAGHTEVAKYLLQNKAKVNAKAKDDQTPLHCAARIGHTNMVKLLLENNANPNLATTAGHTPLHIAAREGHVETVLALLEKEASQACMTKKGFTPLHVAAKYGKVRVAELLLERDAHPNAAGKNGLTPLHVAVHHNNLDIVKLLLPRGGSPHSPAWNGYTPLHIAAKQNQVEVARSLLQYGGSANAESVQGVTPLHLAAQEGHAEMVALLLSKQANGNLGNKSGLTPLHLVAQEGHVPVADVLIKHGVMVDATTRMGYTPLHVASHYGNIKLVKFLLQHQADVNAKTKLGYSPLHQAAQQGHTDIVTLLLKNGASPNEVSSDGTTPLAIAKRLGYISVTDVLKVVTDETSFVLVSDKHRMSFPETVDEILDVSEDEGEELISFKAERRDSRDVDEEKELLDFVPKLDQVVESPAIPRIPCAMPETVVIRSEEQEQASKEYDEDSLIPSSPATETSDNISPVASPVHTGFLVSFMVDARGGSMRGSRHNGLRVVIPPRTCAAPTRITCRLVKPQKLSTPPPLAEEEGLASRIIALGPTGAQFLSPVIVEIPHFASHGRGDRELVVLRSENGSVWKEHRSRYGESYLDQILNGMDEELGSLEELEKKRVCRIITTDFPLYFVIMSRLCQDYDTIGPEGGSLKSKLVPLVQATFPENAVTKRVKLALQAQPVPDELVTKLLGNQATFSPIVTVEPRRRKFHRPIGLRIPLPPSWTDNPRDSGEGDTTSLRLLCSVIGGTDQAQWEDITGTTKLVYANECANFTTNVSARFWLSDCPRTAEAVNFATLLYKELTAVPYMAKFVIFAKMNDPREGRLRCYCMTDDKVDKTLEQHENFVEVARSRDIEVLEGMSLFAELSGNLVPVKKAAQQRSFHFQSFRENRLAMPVKVRDSSREPGGSLSFLRKAMKYEDTQHILCHLNITMPPCAKGSGAEDRRRTPTPLALRYSILSESTPGSLSGTEQAEMKMAVISEHLGLSWAELARELQFSVEDINRIRVENPNSLLEQSVALLNLWVIREGQNANMENLYTALQSIDRGEIVNMLEGSGRQSRNLKPDRRHTDRDYSLSPSQMNGYSSLQDELLSPASLGCALSSPLRADQYWNEVAVLDAIPLAATEHDTMLEMSDMQVWSAGLTPSLVTAEDSSLECSKAEDSDATGHEWKLEGALSEEPRGPELGSLELVEDDTVDSDATNGLIDLLEQEEGQRSEEKLPGSKRQDDATGAGQDSENEVSLVSGHQRGQARITHSPTVSQVTERSQDRLQDWDADGSIVSYLQDAAQGSWQEEVTQGPHSFQGTSTMTEGLEPGGSQEYEKVLVSVSEHTWTEQPEAESSQADRDRRQQGQEEQVQEAKNTFTQVVQGNEFQNIPGEQVTEEQFTDEQGNIVTKKIIRKVVRQIDLSSADAAQEHEEVTVEGPLEDPSELEVDIDYFMKHSKDHTSTPNP
